Assay results reported in article PMC12459405, “From disorder to icosahedral symmetry: How conformation-switching subunits enable RNA virus assembly” (Science Advances, 2025).

Biological target: the molecule itself
Assay: cryo-TEM + other: SAXS; in vitro assembly: purified CCMV capsid proteins mixed with in vitro transcribed RNA (C2, 2767 nt, or RF2, 2687 nt) and dialysed overnight against 0.1 M NaCl, 50 mM tris-HCl pH 7.5; SAXS at 25 uM protein, protein-to-RNA mass ratio 4.5; cryo-TEM at 75 uM protein, mass ratio 6.0

B1: cowpea chlorotic mottle virus (CCMV) capsid protein (natural protein)
chain: MSTVGTGKLTRAQRRAAARKNKRNTRVVQPVIVEPIASGQGKAIKAWTGYSVSKWTASCAAAEAKVTSAITISLPNELSSERNKQLKVGRVLLWLGLLPSVSGTVKSCVTETQTTAAASFQVALAVADNSKDVVAAMYPEAFKGITLEQLTADLTIYLYSSAALTEGDVIVHLEVEHVRPTFDDSFTPVY
notes: Free capsid protein stored in 0.5 M NaCl, 50 mM tris-HCl pH 7.5; also called CCMV capsid proteins; CCMV coat proteins; source: purified from CCMV virions from infected cowpea leaves (Vigna unguiculata); virions disassembled by dialysis, capsid proteins recovered by ultracentrifugation
binding result: binds
